Assay [1] concerns the target T1, His-tagged human CD47 (human, UniProt Q08722 19-139, limits assumed).
T1 construct: loaded on HIS1K biosensors at 2.5 µg/mL; also called target antigen; not shown: His tag
In words: BLI, His-CD47 on HIS1K sensor, antibody 15 µg/mL. As for the experimental part: (§1) The capacity of the masking domains to inhibit binding activity of the antibody was evaluated by Bio-Layer Interferometry (BLI). […] Binding experiments were performed to evaluate the masking efficiency and the binding recovery after cleavage of the masking domains. BLI was performed on an Octet RED96 system (Sartorius). His-tagged human CD47 was diluted at 2.5 μg/mL in Kinetic Buffer (KB) (Sartorius) and loaded on HIS1K biosensors (anti-His tag antibody biosensors, Sartorius) for 300 seconds. Loaded biosensors were dipped into antibodies diluted at 15 μg/mL in KB for 300 seconds to monitor association. Then, biosensors were transferred in KB for dissociation for 60 seconds. Binding profiles were then analyzed with ForteBio Data Analysis software.
In general terms: In BLI a coated tip is dipped into the sample, and binding shifts an interference pattern.

The target of assay [2] is T2, CD47 at the surface of Peak cells (human, UniProt Q08722 19-323).
T2 construct: whole, on cells; also called cell surface CD47
In words: flow cytometry, Peak cells, before cleavage. Here is the method: (§2) Binding activity of antibody-cytokine/receptor fusions before and after cleavage was also evaluated by flow cytometry. Peak cells derived from HEK 293 which are human cells expressing CD47 were used to evaluate masking efficacy and binding recovery to CD47 by flow cytometry. Peak cells were diluted in cold FACS buffer (PBS, 2% BSA) to 1.2×10⁶ cells/mL. 3×10⁵ cells/well were added in a 96 well V-bottom plate. The plate was then centrifugated for 5 min at 1300 rpm, 4° C. Supernatants were removed and cells were washed twice using FACS buffer. A serial dilution of antibody-cytokine/receptor fusions previously digested with MMP-9 or not digested as described above was prepared in FACS buffer. An irrelevant antibody was included. Then, 150 μL of each diluted antibody were added in corresponding well and incubated for 30 min at 4° C. Cells were washed twice with FACS buffer and 100 μL of a mouse anti human Fc-PE conjugated secondary antibody were added and the plate was incubated for 20 min at 4° C. Cells were then washed twice with FACS buffer. Finally, 150 μL of SYTOX blue dead cell stain (ThermoFisher) diluted to 1/5000 in FACS buffer were added before detection by flow cytometry with Cytoflex (Beckman Coulter). Acquisition was performed with 10000 events for each well. Data were analyzed by FlowJo software.

For assay [3], the target named is T3, low-moderate affinity dimeric IL-2R (IL-2Rβ and IL-2Rγ) on HEK-Blue CD122/CD132 cells (UniProt P14784 27-551; P31785 23-369, limits assumed).
T3 sequence (looked up) 1: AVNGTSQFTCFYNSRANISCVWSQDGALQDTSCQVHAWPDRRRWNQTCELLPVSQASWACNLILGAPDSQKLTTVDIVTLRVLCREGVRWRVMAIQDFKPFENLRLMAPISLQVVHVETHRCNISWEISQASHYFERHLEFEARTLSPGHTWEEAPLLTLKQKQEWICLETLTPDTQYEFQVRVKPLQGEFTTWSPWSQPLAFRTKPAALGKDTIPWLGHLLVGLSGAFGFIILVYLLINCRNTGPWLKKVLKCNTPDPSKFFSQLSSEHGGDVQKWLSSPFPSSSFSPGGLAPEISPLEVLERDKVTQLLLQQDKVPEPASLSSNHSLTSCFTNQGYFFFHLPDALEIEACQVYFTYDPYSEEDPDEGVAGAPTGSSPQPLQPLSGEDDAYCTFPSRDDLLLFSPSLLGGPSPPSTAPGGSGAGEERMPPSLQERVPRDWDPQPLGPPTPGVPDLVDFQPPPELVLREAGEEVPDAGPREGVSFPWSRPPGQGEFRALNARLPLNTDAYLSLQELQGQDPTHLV
T3 sequence (looked up) 2: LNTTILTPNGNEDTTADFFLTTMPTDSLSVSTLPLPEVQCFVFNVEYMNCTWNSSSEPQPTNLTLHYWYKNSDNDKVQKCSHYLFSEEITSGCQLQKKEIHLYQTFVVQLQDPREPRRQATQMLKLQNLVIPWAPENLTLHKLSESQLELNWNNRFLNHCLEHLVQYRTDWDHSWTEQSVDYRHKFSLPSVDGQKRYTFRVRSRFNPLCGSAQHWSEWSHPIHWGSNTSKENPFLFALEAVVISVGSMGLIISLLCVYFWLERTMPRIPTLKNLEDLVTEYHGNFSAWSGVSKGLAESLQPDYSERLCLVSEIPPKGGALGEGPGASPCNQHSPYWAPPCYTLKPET
In words: cell-based or functional assay.

Assay [4] has as its target T4, high affinity trimeric IL-2R (IL-2Rα, IL-2Rβ and IL-2Rγ) on HEK-Blue IL-2 cells (UniProt P01589 22-272; P14784 27-551; P31785 23-369).
T4 sequence (looked up) 1: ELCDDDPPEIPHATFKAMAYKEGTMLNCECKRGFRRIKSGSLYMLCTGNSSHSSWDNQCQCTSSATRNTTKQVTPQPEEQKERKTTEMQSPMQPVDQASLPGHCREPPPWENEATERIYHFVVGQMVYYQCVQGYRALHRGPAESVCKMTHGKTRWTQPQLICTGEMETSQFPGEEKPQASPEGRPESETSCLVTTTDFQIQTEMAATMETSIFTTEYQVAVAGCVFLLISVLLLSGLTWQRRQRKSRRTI
T4 sequence (looked up) 2: T3 sequence (looked up) 1
T4 sequence (looked up) 3: T3 sequence (looked up) 2
The assay can be described thus: cell-based or functional assay.

In assay [5] the target is T2, CD47 at the surface of Peak cells. The assay can be described thus: flow cytometry, Peak cells; EC50 before / EC50 after cleavage. Here is the method:
as §2

For assay [6] the target is unchanged. In words: flow cytometry, Peak cells. As for the experimental part:
as §2
Background: In flow cytometry, cells or beads pass a laser one at a time.

Assay [7] addresses T1, His-tagged human CD47. In words: BLI, His-CD47 on HIS1K sensor, after MMP-9 treatment. As for the experimental part: as §1
In assay [8] the target is T2, CD47 at the surface of Peak cells. The assay can be described thus: flow cytometry, Peak cells, after MMP-9 treatment. Here is the method: as §2

This is an account of results in US20240254223A1 (NOVIMMUNE, published 2024).

A word on the EC50: it is the concentration that produces a half-maximal response.

B1: pNOVI V2K K91_IL-2Rα CM1_VKCK_IL-2_CM1_VHCH (antibody, human IgG1, kappa)
light: ELCDDDPPEIPHATFKAMAYKEGTMLNCECKRGFRRIKSGSLYMLCTGNSSHSSWDNQCQCTSSATRNTTKQVTPQPEEQKERKTTEMQSPMQPVDQASLPGHCREPPPWENEATERIYHFVVGQMVYYQCVQGYRALHRGPAESVCKMTHGKTRWTQPQLICTGEMETSQFPGEEKPQASPEGRPESETSCLVTTTDFQIQTEMAATMETSIFTTEGGGGSVHMPLGFLGPGGSDIQMTQSPSSLSASVGDRVTITCNVDQVIANWLNWYQQKPGKAPKLLIYAASSLQSGVPSRFSGSGSGTDFTLTISSLQPEDFATYYCQQMHPRAPKQFGQGTKVEIKRTVAAPSVFIFPPSDEQLKSGTASVVCLLNNFYPREAKVQWKVDNALQSGNSQESVTEQDSKDSTYSLSSTLTLSKADYEKHKVYACEVTHQGLSSPVTKSFNRGEC
heavy: not shown
notes: masked K91 fusion, uncleaved; also called n690; construct No 690
On to B1, for which the “Binding before cleavage (BLI)” value in assay [1] is 1.2 nm. In addition, the EC50 in assay [2] was found to be 8.7 nM. In addition, in assay [3], the “EC50 before cleavage IL-2, HEK Blue IL-2 βγ reporter assay” value stood at 0.12 nM and the “EC50 ratio (BC/AC), HEK Blue IL-2 βγ reporter assay” value was 4. For the same molecule, in assay [4], the “EC50 before cleavage IL-2, HEK Blue IL-2 αβγ reporter assay” value came out at 0.07 nM and the “EC50 ratio (BC/AC), HEK Blue IL-2 αβγ reporter assay” value turned out to be 1. In addition, the “Binding recovery (BC/AC)” value in assay [5] was 20.

B2: pNOVI V2K K91 (antibody, human IgG1, kappa)
light: DIQMTQSPSSLSASVGDRVTITCNVDQVIANWLNWYQQKPGKAPKLLIYAASSLQSGVPSRFSGSGSGTDFTLTISSLQPEDFATYYCQQMHPRAPKQFGQGTKVEIKRTVAAPSVFIFPPSDEQLKSGTASVVCLLNNFYPREAKVQWKVDNALQSGNSQESVTEQDSKDSTYSLSSTLTLSKADYEKHKVYACEVTHQGLSSPVTKSFNRGEC
heavy: not shown
notes: also called n46; construct No 46
In assay [6], B2 yielded an EC50 of 0.062 nM. Also, the “Binding before cleavage (BLI)” value in assay [1] worked out at 1.8 nm.

B3: pNOVI V2K K91_IL15_CM1_VHCH (antibody)
light: B2 light
heavy: not shown
notes: masked K91 fusion, uncleaved; 49% aggregates; also called n111; construct No 111
In the case of B3, the “Binding before cleavage (BLI)” value in assay [1] is 1.5 nm.

B4: Construct No 41 after cleavage by MMP-9 (antibody)
light: B2 light
heavy: not shown
notes: MMP-9 digest of m8; the sample also holds the released IL-2 and IL-2Rα; also called n41 after cleavage; not shown: remnant of CM1 and linker after MMP-9 cleavage
With B4, the “Binding after cleavage (BLI)” value in assay [7] was determined as 1.7 nm. In addition, in assay [8], a half-maximal response (EC50) required 0.2 nM. In addition, the “EC50 after cleavage IL-2, HEK Blue IL-2 βγ reporter assay” value in assay [3] worked out at 0.01 nM. Moreover, the “EC50 after cleavage IL-2, HEK Blue IL-2 αβγ reporter assay” value in assay [4] was 0.02 nM.

B5: Construct No 651 after cleavage by MMP-9 (antibody)
light: B2 light
heavy: not shown
notes: MMP-9 digest of m22; the sample also holds the released IL-2Rα, IL-2 and IL-2Rβ; also called n651 after cleavage; not shown: remnant of CM1 and linker after MMP-9 cleavage
With B5, the “Binding after cleavage (BLI)” value in assay [7] was 1.6 nm. The molecule also yielded an EC50 in assay [8] of 0.7 nM. In addition, the “EC50 after cleavage IL-2, HEK Blue IL-2 βγ reporter assay” value in assay [3] was determined as 0.01 nM. Further, the “EC50 after cleavage IL-2, HEK Blue IL-2 αβγ reporter assay” value in assay [4] is 0.02 nM.

B6: pNOVI V2K K91_IL-2 CM1_CM2_VHCH (antibody, human IgG1, kappa)
light: B2 light
heavy: not shown
notes: masked K91 fusion, uncleaved; also called n17; construct No 17
B6: the “Binding before cleavage (BLI)” value in assay [1] is 2.2 nm.

B7: pNOVI V2K K91_IL-2 CM1_VHCH (antibody, human IgG1, kappa)
light: B2 light
heavy: not shown
notes: masked K91 fusion, uncleaved; also called n13; construct No 13
For B7, in assay [1], the “Binding before cleavage (BLI)” value worked out at 2.3 nm.

B8: Construct No 676 after cleavage by MMP-9 (antibody)
light: B2 light
heavy: not shown
notes: MMP-9 digest of m23; the sample also holds the released IL-2Rα-(GGGGS)2-IL-2 fusion (no cleavable linker between the two) and IL-2Rβ; also called n676 after cleavage; not shown: remnant of CM1 and linker after MMP-9 cleavage
Consider B8, for which the “Binding after cleavage (BLI)” value in assay [7] is 1.5 nm. This molecule also gave a concentration giving a half-maximal response (EC50) in assay [8] of 1 nM. For the same molecule, the “EC50 after cleavage IL-2, HEK Blue IL-2 βγ reporter assay” value in assay [3] is 0.03 nM. In addition, in assay [4], the “EC50 after cleavage IL-2, HEK Blue IL-2 αβγ reporter assay” value worked out at 0.04 nM.

B9: pNOVI V2K K33 (antibody, human IgG1, kappa)
light: DIQMTQSPSSLSASVGDRVTITCRASQSISSYLNWYQQKPGKAPKLLIYAASSLQSGVPSRFSGSGSGTDFTLTISSLQPEDFATYYCQQFHKRSPQKFGQGTKVEIKRTVAAPSVFIFPPSDEQLKSGTASVVCLLNNFYPREAKVQWKVDNALQSGNSQESVTEQDSKDSTYSLSSTLTLSKADYEKHKVYACEVTHQGLSSPVTKSFNRGEC
heavy: not shown
notes: also called n22; construct No 22
With B9, the “Binding before cleavage (BLI)” value in assay [1] is 1.3 nm.
